Measurements from patent publication US20180264123A1 (UNIVERSITY OF MIYAZAKI, published 2018).
Bridge positions count the residues as written; N and C are the ends. Xyl‑4‑branched CH3O‑PEG (40k)‑CH2 = xylose skeleton-containing 4-branched CH3O-PEG (40k)-CH2 (alkylamine-linked PEG, 40k)

Biological target: AM receptor
Experiment: cell-based or functional assay

B1: CH3O-PEG (20k)-(CH2)2-CH2-^αNH-(h.AM (16-52)) (peptide)
peptide: {CH3O‑PEG (20k)‑(CH2)2‑CH2‑}-CRFGTCTVQKLAHQIYQFTDKDKDNVAPRSKISPQGY-NH2
modifications: disulfide 1-6
- Intracellular cAMP concentration-increasing effect (%) vs h.AM (1-52); 10^-8 mol/L, HEK293 cells: 97%

B2: GL-2-branched CH3O-PEG (60k)-CH2-^αNH-(h.AM (1-52)) (peptide)
peptide: {GL‑2‑branched CH3O‑PEG (60k)‑CH2‑}-YRQSMNNFQGLRSFGCRFGTCTVQKLAHQIYQFTDKDKDNVAPRSKISPQGY-NH2
modifications: disulfide 16-21
- Intracellular cAMP concentration-increasing effect (%) vs h.AM (1-52); 10^-8 mol/L, HEK293 cells: 99%

B3: GL-2-branched CH3O-PEG (40k)-CO-^αNH-(h.AM (1-52)) (peptide)
peptide: {GL‑2‑branched CH3O‑PEG (40k)‑CO‑}-YRQSMNNFQGLRSFGCRFGTCTVQKLAHQIYQFTDKDKDNVAPRSKISPQGY-NH2
modifications: disulfide 16-21
- Intracellular cAMP concentration-increasing effect (%) vs h.AM (1-52); 10^-8 mol/L, HEK293 cells: 87%

B4: CH3O-PEG (40k)-(CH2)2-CH2-^αNH-(h.AM (1-52)) (peptide)
peptide: {CH3O‑PEG (40k)‑(CH2)2‑CH2‑}-YRQSMNNFQGLRSFGCRFGTCTVQKLAHQIYQFTDKDKDNVAPRSKISPQGY-NH2
modifications: disulfide 16-21
- Intracellular cAMP concentration-increasing effect (%) vs h.AM (1-52); 10^-8 mol/L, HEK293 cells: 101%

B5: CH3O-PEG (20k)-(CH2)5-CO-^αNH-(h.AM (1-52)) (peptide)
peptide: {CH3O‑PEG (20k)‑(CH2)5‑CO‑}-YRQSMNNFQGLRSFGCRFGTCTVQKLAHQIYQFTDKDKDNVAPRSKISPQGY-NH2
modifications: disulfide 16-21
- Intracellular cAMP concentration-increasing effect (%) vs h.AM (1-52); 10^-8 mol/L, HEK293 cells: 67%

B6: GL-3-branched CH3O-PEG (50k)-CH2-^αNH-(h.AM (1-52)) (peptide)
peptide: {GL‑3‑branched CH3O‑PEG (50k)‑CH2‑}-YRQSMNNFQGLRSFGCRFGTCTVQKLAHQIYQFTDKDKDNVAPRSKISPQGY-NH2
modifications: disulfide 16-21
- Intracellular cAMP concentration-increasing effect (%) vs h.AM (1-52); 10^-8 mol/L, HEK293 cells: 80%

B7: GL-2-branched CH3O-PEG (40k)-CH2-^αNH-(h.AM (1-52)) (peptide)
peptide: {GL‑2‑branched CH3O‑PEG (40k)‑CH2‑}-YRQSMNNFQGLRSFGCRFGTCTVQKLAHQIYQFTDKDKDNVAPRSKISPQGY-NH2
modifications: disulfide 16-21
- Intracellular cAMP concentration-increasing effect (%) vs h.AM (1-52); 10^-8 mol/L, HEK293 cells: 96%

B8: CH3O-PEG (20k)-(CH2)2-CH2-^αNH-(h.AM (11-52)) (peptide)
peptide: {CH3O‑PEG (20k)‑(CH2)2‑CH2‑}-LRSFGCRFGTCTVQKLAHQIYQFTDKDKDNVAPRSKISPQGY-NH2
modifications: disulfide 6-11
- Intracellular cAMP concentration-increasing effect (%) vs h.AM (1-52); 10^-8 mol/L, HEK293 cells: 97%

B9: CH3O-PEG (5k)-(CH2)2-CH2-^αNH-(h.AM (11-52)) (peptide)
peptide: {CH3O‑PEG (5k)‑(CH2)2‑CH2‑}-LRSFGCRFGTCTVQKLAHQIYQFTDKDKDNVAPRSKISPQGY-NH2
modifications: disulfide 6-11
- Intracellular cAMP concentration-increasing effect (%) vs h.AM (1-52); 10^-8 mol/L, HEK293 cells: 80%

B10: GL-4-branched CH3O-PEG (40k)-CO-^αNH-(h.AM (6-52)) (peptide)
peptide: {GL‑4‑branched CH3O‑PEG (40k)‑CO‑}-NNFQGLRSFGCRFGTCTVQKLAHQIYQFTDKDKDNVAPRSKISPQGY-NH2
modifications: disulfide 11-16
- Intracellular cAMP concentration-increasing effect (%) vs h.AM (1-52); 10^-8 mol/L, HEK293 cells: 83%

B11: GL-4-branched CH3O-PEG (40k)-CH2-^αNH-(h.AM (1-52)) (peptide)
peptide: {GL‑4‑branched CH3O‑PEG (40k)‑CH2‑}-YRQSMNNFQGLRSFGCRFGTCTVQKLAHQIYQFTDKDKDNVAPRSKISPQGY-NH2
modifications: disulfide 16-21
- Intracellular cAMP concentration-increasing effect (%) vs h.AM (1-52); 10^-8 mol/L, HEK293 cells: 95%

B12: GL-2-branched CH3O-PEG (20k)-CO-^αNH-(h.AM (16-52)) (peptide)
peptide: {GL‑2‑branched CH3O‑PEG (20k)‑CO‑}-CRFGTCTVQKLAHQIYQFTDKDKDNVAPRSKISPQGY-NH2
modifications: disulfide 1-6
- Intracellular cAMP concentration-increasing effect (%) vs h.AM (1-52); 10^-8 mol/L, HEK293 cells: 96%

B13: CH3O-PEG (20k)-(CH2)2-CH2-^αNH-(h.AM (1-52)) (peptide)
peptide: {CH3O‑PEG (20k)‑(CH2)2‑CH2‑}-YRQSMNNFQGLRSFGCRFGTCTVQKLAHQIYQFTDKDKDNVAPRSKISPQGY-NH2
modifications: disulfide 16-21
- Intracellular cAMP concentration-increasing effect (%) vs h.AM (1-52); 10^-8 mol/L, HEK293 cells: 100%

B14: GL-2-branched CH3O-PEG (20k)-CO-^αNH-(h.AM (6-52)) (peptide)
peptide: {GL‑2‑branched CH3O‑PEG (20k)‑CO‑}-NNFQGLRSFGCRFGTCTVQKLAHQIYQFTDKDKDNVAPRSKISPQGY-NH2
modifications: disulfide 11-16
- Intracellular cAMP concentration-increasing effect (%) vs h.AM (1-52); 10^-8 mol/L, HEK293 cells: 99%

B15: GL-2-branched CH3O-PEG (20k)-CO-^αNH-(h.AM (1-52)) (peptide)
peptide: {GL‑2‑branched CH3O‑PEG (20k)‑CO‑}-YRQSMNNFQGLRSFGCRFGTCTVQKLAHQIYQFTDKDKDNVAPRSKISPQGY-NH2
modifications: disulfide 16-21
- Intracellular cAMP concentration-increasing effect (%) vs h.AM (1-52); 10^-8 mol/L, HEK293 cells: 99%

B16: CH3O-PEG (20k)-CO-^αNH-(h.AM (1-52)) (peptide)
peptide: {CH3O‑PEG (20k)‑CO‑}-YRQSMNNFQGLRSFGCRFGTCTVQKLAHQIYQFTDKDKDNVAPRSKISPQGY-NH2
modifications: disulfide 16-21
- Intracellular cAMP concentration-increasing effect (%) vs h.AM (1-52); 10^-8 mol/L, HEK293 cells: 100%

B17: Xyl-4-branched CH3O-PEG (40k)-CH2-^αNH-(h.AM (1-52)) (peptide)
peptide: {Xyl‑4‑branched CH3O‑PEG (40k)‑CH2}-YRQSMNNFQGLRSFGCRFGTCTVQKLAHQIYQFTDKDKDNVAPRSKISPQGY-NH2
modifications: disulfide 16-21
- Intracellular cAMP concentration-increasing effect (%) vs h.AM (1-52); 10^-8 mol/L, HEK293 cells: 81%

B18: GL-4-branched CH3O-PEG (40k)-CO-^αNH-(h.AM (1-52)) (peptide)
peptide: {GL‑4‑branched CH3O‑PEG (40k)‑CO‑}-YRQSMNNFQGLRSFGCRFGTCTVQKLAHQIYQFTDKDKDNVAPRSKISPQGY-NH2
modifications: disulfide 16-21
- Intracellular cAMP concentration-increasing effect (%) vs h.AM (1-52); 10^-8 mol/L, HEK293 cells: 85%

B19: CH3O-PEG (5k)-(CH2)5-CO-^αNH-(h.AM (1-52)) (peptide)
peptide: {CH3O‑PEG (5k)‑(CH2)5‑CO‑}-YRQSMNNFQGLRSFGCRFGTCTVQKLAHQIYQFTDKDKDNVAPRSKISPQGY-NH2
modifications: disulfide 16-21
- Intracellular cAMP concentration-increasing effect (%) vs h.AM (1-52); 10^-8 mol/L, HEK293 cells: 81%

B20: CH3O-PEG (5k)-(CH2)2-CH2-^αNH-(h.AM (16-52)) (peptide)
peptide: {CH3O‑PEG (5k)‑(CH2)2‑CH2‑}-CRFGTCTVQKLAHQIYQFTDKDKDNVAPRSKISPQGY-NH2
modifications: disulfide 1-6
- Intracellular cAMP concentration-increasing effect (%) vs h.AM (1-52); 10^-8 mol/L, HEK293 cells: 39%

B21: CH3O-PEG (5k)-(CH2)2-CH2-^αNH-(h.AM (6-52)) (peptide)
peptide: {CH3O‑PEG (5k)‑(CH2)2‑CH2‑}-NNFQGLRSFGCRFGTCTVQKLAHQIYQFTDKDKDNVAPRSKISPQGY-NH2
modifications: disulfide 11-16
- Intracellular cAMP concentration-increasing effect (%) vs h.AM (1-52); 10^-8 mol/L, HEK293 cells: 90%

B22: Lys-2-branched CH3O-PEG (40k)-CH2-^αNH-(h.AM (1-52)) (peptide)
peptide: YRQSMNNFQGLRSFGCRFGTCTVQKLAHQIYQFTDKDKDNVAPRSKISPQGY
modifications: N-terminal α-amino group alkylamine-linked to lysine skeleton-containing 2-branched CH3O-PEG (40k)-CH2-; Cys16-Cys21 disulfide; C-terminal amide
- Intracellular cAMP concentration-increasing effect (%) vs h.AM (1-52); 10^-8 mol/L, HEK293 cells: 102%

B23: CH3O-PEG (30k)-(CH2)2-CH2-^αNH-(h.AM (1-52)) (peptide)
peptide: {CH3O‑PEG (30k)‑(CH2)2‑CH2‑}-YRQSMNNFQGLRSFGCRFGTCTVQKLAHQIYQFTDKDKDNVAPRSKISPQGY-NH2
modifications: disulfide 16-21
- Intracellular cAMP concentration-increasing effect (%) vs h.AM (1-52); 10^-8 mol/L, HEK293 cells: 100%

B24: GL-2-branched CH3O-PEG (80k)-CH2-^αNH-(h.AM (1-52)) (peptide)
peptide: {GL‑2‑branched CH3O‑PEG (80k)‑CH2‑}-YRQSMNNFQGLRSFGCRFGTCTVQKLAHQIYQFTDKDKDNVAPRSKISPQGY-NH2
modifications: disulfide 16-21
- Intracellular cAMP concentration-increasing effect (%) vs h.AM (1-52); 10^-8 mol/L, HEK293 cells: 94%

B25: CH3O-PEG (10k)-(CH2)2-CH2-^αNH-(h.AM (1-52)) (peptide)
peptide: {CH3O‑PEG (10k)‑(CH2)2‑CH2‑}-YRQSMNNFQGLRSFGCRFGTCTVQKLAHQIYQFTDKDKDNVAPRSKISPQGY-NH2
modifications: disulfide 16-21
- Intracellular cAMP concentration-increasing effect (%) vs h.AM (1-52); 10^-8 mol/L, HEK293 cells: 101%

B26: GL-2-branched CH3O-PEG (20k)-CO-^αNH-(h.AM (11-52)) (peptide)
peptide: {GL‑2‑branched CH3O‑PEG (20k)‑CO‑}-LRSFGCRFGTCTVQKLAHQIYQFTDKDKDNVAPRSKISPQGY-NH2
modifications: disulfide 6-11
- Intracellular cAMP concentration-increasing effect (%) vs h.AM (1-52); 10^-8 mol/L, HEK293 cells: 104%

B27: GL-2-branched CH3O-PEG (40k)-CO-^αNH-(h.AM (16-52)) (peptide)
peptide: {GL‑2‑branched CH3O‑PEG (40k)‑CO‑}-CRFGTCTVQKLAHQIYQFTDKDKDNVAPRSKISPQGY-NH2
modifications: disulfide 1-6
- Intracellular cAMP concentration-increasing effect (%) vs h.AM (1-52); 10^-8 mol/L, HEK293 cells: 61%

B28: GL-2-branched CH3O-PEG (40k)-CH2-^αNH-(h.AM (6-52)) (peptide)
peptide: {GL‑2‑branched CH3O‑PEG (40k)‑CH2‑}-NNFQGLRSFGCRFGTCTVQKLAHQIYQFTDKDKDNVAPRSKISPQGY-NH2
modifications: disulfide 11-16
- Intracellular cAMP concentration-increasing effect (%) vs h.AM (1-52); 10^-8 mol/L, HEK293 cells: 77%
